Results on 4 molecules are retold here after US20240343803A1 (SHANDONG SIMCERE BIOPHARMACEUTICAL, published 2024).

Test [1] deals with T1, full-length human TIGIT on CHO-K1 cells (CHO-K1 human TIGIT) (human, UniProt Q495A1 22-244).
T1 construct: NCBI XP_024309156.1; entry includes the signal peptide; also called high expression strain 1D2; medium expression strain 2D10
T1 sequence: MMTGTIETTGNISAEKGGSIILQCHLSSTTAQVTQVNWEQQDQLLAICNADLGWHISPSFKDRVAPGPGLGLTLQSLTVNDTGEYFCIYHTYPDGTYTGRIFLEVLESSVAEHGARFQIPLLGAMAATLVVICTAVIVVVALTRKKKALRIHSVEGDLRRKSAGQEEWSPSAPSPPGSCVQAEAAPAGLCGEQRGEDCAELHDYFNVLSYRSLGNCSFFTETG
Briefly: FACS, competition: Bio-CD155-His to CHO-K1 human TIGIT. As for the experimental part:
The collected cells were washed once with PBS (Hyclone, CAT #SH30256), resuspended to 2×10⁵/40 μL with 1% BSA-PBS. The antibodies were diluted to 210 nM with 1% BSA-PBS (diluted by 3-fold serial dilution for 12 concentration points). […] The 40 μL cells were then mixed with 40 μL diluted antibodies and 40 μL diluted Bio-CD155-His, and then incubated at 4° C. for 60 minutes. The cells were washed twice with PBS, resuspended with APC labeled streptavidin (dilution ratio 1:1700, Biolegend, 405243), 100 μL/well, and incubated at 4° C. for 40 minutes. The cell samples were washed twice with PBS, resuspended with 1% BSA-PBS, 100 μL/well and then analyzed by flow cytometry (BD, Canto II). […] [0300] (d) The effect of anti-TIGIT chimeric antibodies blocking the interaction between TIGIT ECD-mFc and CHO-K1 CD155 detected by FACS

Test [2] has as its target T1, full-length human TIGIT on CHO-K1 cells …. Briefly: FACS, high expression strain. How it is done: (§1) The collected cells were washed once with PBS (Hyclone, CAT #SH30256), resuspended to 2×10⁵/50 μL with 1% BSA-PBS. The antibodies were diluted to 80 nM with 1% BSA-PBS (diluted by 3-fold serial dilution for 12 concentration points). The 50 μL cells were then mixed with 50 μL diluted antibodies, and then incubated at 4° C. for 60 minutes. […] After washing twice with PBS, the cell samples were resuspended with 1% BSA-PBS, 100 μL/well and then analyzed by flow cytometry (BD, Canto II). […] [0298] (c) The effect of anti-TIGIT chimeric antibodies blocking the interaction between Bio-CD155-His and CHO-K1 human TIGIT high expression cell strains detected by FACS

Test [3] shares this target. As to the kind of experiment: FACS, low expression strain. As for the experimental part: as §1
Test [4] deals with T2, human TIGIT ECD-mFc (fusion protein of extracellular domain of human TIGIT and mouse IgG2a Fc fragment) (human).
T2 chain: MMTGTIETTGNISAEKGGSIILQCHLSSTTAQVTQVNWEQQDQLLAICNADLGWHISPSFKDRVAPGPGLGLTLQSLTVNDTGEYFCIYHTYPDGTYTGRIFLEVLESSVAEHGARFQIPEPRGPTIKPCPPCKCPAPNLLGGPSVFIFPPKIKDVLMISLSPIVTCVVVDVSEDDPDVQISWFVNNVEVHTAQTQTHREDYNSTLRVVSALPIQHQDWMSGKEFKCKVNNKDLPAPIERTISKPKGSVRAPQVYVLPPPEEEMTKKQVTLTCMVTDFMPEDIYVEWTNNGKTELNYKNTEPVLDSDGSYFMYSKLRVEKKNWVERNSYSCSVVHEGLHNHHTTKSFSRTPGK
As to the kind of experiment: FACS, competition: hTIGIT ECD-mFc to CHO-K1 CD155. How it is done: The collected CHO-K1 CD155 cells were washed once with PBS (Hyclone, CAT #SH30256) and resuspended to 2×10⁵/40 μL with 1% BSA-PBS. The tested antibodies were diluted to 600 nM with 1% BSA-PBS (diluted by 2.5-fold serial dilution for 12 concentration points). The TIGIT ECD-mFc was diluted with 1% BSA-PBS to 6 μg/mL. The 40 μL cells were then mixed with 40 μL diluted antibodies and 40 μL diluted TIGIT ECD-mFc, and then incubated at 4° C. for 60 minutes. […] The cell samples were washed twice with PBS, resuspended to 100 μL/well with 1% BSA-PBS and then analyzed by flow cytometry (BD, Canto II).

For test [5], the target named is T2, human TIGIT ECD-mFc (fusion protein of …). Briefly: ELISA. How it is done:
(§2) After discarding the coating solution, the plate was added with 5% skim milk powder (Sangon Biotech, CAT #A600669-0250)-PBS, 250 μL/well, and incubated at 37° C. for 2-4 hours. […] The enzyme-labeled plate was then washed with 0.05% Tween 20-PBS for 3 times on the Microplate Washer, added with tested antibodies diluted to 13 nM with 1% BSA (diluted by 3-fold serial dilution for 12 concentration points), 50 μL/well, and incubated at 37° C. for 1.5-2 hours. The plate was washed with 0.05% Tween 20-PBS for 3 times on the Microplate Washer, then added with HRP enzyme-labeled antibodies (Merck, CAT #AP113P) diluted with 1% BSA (Sangon Biotech, CAT #A500023-0100)-PBS at a dilution ratio of 1:5000, 50 μL/well, and incubated at 37° C. for 1 hour. After washing 3 times with 0.05% Tween 20-PBS on the Microplate Washer, the plate was added with TMB chromogenic solution (KPL, CAT #52-00-03), 50 μL/well, and incubated at room temperature for 7-10 minutes. 1M HCL, 50 μL/well, was then added into the plate to terminate the reaction, and the OD450 nm was read by a microplate reader (Biotek, Powerwave HT). […] (b) The binding activity of anti-TIGIT chimeric antibodies to CHO-K1 human TIGIT (cells with high, medium and low expression levels) and CHO-KI cynomolgus monkey TIGIT detected by FACS.

Test [6] addresses T3, cynomolgus monkey TIGIT ECD-mFc (extracellular domain of cynomolgus monkey TIGIT and mouse IgG2a Fc fragment) (cynomolgus monkey).
T3 construct: entry includes the signal peptide, limits not readable here
Briefly: ELISA. How it is done:
as §2

Test [7] deals with T4, human TIGIT ECD-his (fusion protein of extracellular domain of human TIGIT and His-tag) (human).
T4 construct: entry includes the signal peptide, limits not readable here
T4 chain: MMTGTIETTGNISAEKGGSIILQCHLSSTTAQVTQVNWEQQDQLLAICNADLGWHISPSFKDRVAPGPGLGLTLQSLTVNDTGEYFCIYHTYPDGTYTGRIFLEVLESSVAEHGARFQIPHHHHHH
Briefly: BIAcore kinetics.

Test [8] has as its target T5, full-length cynomolgus monkey TIGIT on CHO-K1 cells (CHO-K1 cynomolgus monkey TIGIT) (cynomolgus monkey).
T5 construct: NCBI XP_015300911.1; also called cynomolgus monkey TIGIT cells
Briefly: FACS. As for the experimental part: as §1

Test [9] has as its target T1, full-length human TIGIT on CHO-K1 cells …. As to the kind of experiment: FACS, medium expression strain. As for the experimental part: as §1

T3 sequence (chain, as listed by the source limits assumed): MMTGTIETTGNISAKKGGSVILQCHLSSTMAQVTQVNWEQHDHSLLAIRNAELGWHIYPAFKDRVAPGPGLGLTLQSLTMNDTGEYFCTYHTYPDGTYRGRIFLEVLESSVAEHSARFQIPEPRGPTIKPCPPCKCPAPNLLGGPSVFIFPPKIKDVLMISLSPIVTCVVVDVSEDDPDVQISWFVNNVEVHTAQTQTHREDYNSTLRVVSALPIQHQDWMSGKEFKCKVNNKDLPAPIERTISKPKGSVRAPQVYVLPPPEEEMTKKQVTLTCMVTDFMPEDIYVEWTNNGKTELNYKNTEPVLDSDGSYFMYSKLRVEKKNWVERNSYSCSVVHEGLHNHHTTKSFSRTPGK
T5 sequence (chain, as listed by the source limits assumed): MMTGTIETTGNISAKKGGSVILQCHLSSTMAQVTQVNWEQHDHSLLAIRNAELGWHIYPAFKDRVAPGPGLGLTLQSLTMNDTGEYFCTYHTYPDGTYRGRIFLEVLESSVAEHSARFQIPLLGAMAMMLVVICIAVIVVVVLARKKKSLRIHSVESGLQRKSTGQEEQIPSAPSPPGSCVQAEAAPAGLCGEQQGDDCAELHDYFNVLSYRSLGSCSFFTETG

B1: TIGIT-CHI-005 (antibody, V domains shown)
VH: QVQLQQSGAELVRPGTSVKVSCKASGYAFTNYLIEWVKQRPGQGLEWIGVINPGSGGTNYKEKFKGKATLTADKSSSTAYMQLSSLTSEDSAVYFCARGEYFFFDYWGQGTTLTVSS
VL: DIVMTQSHKFMSTSVGDRVSITCKASQHVSNGVAWYQHKPGQSPKLLIYSASYRYTGVPDRFTGTGSGTDFTFTISSVQAEDLAVYYCQQHYNTPHTFGGGTKLEIK
notes: human-mouse chimeric antibody
For the molecule B1, the concentration for half-maximal inhibition (IC50) in [1] amounted to 0.158 nM; in [4], 0.363 nM. In addition, the EC50 in test [2] came out at 0.342 nM; in [3], 0.229 nM; in [5], 0.0173 nM; in [6], 0.017 nM; in test [8], 0.0264 nM; in test [9], 0.316 nM. This molecule yielded a Kd in test [7] of 0.0536 nM. Moreover, the off-rate constant (koff) in test [7] is 0.000192 s⁻¹. The on-rate (kon) in test [7] was found to be 3.59e+06 M⁻¹ s⁻¹.

B2: TIGIT-CHI-002 (antibody, V domains shown)
VH: EVQLQESGPGLAKPSQTLSLACSVTGYSITSDSWNWIRKFPGNKLEYMGYISYSGNTYYNPSLKSRISITRDTSKNQFYLQLNSVTTEDTATYYCARLDFSNYGGAVDYWGQGTSVTVSS
VL: DIVMTQSHTFMSTSVGDRVSITCKASQNVRTAVAWYQQKPGQSPKLMIYSASYRYTGVPDRFTGSGSGTDFTFTISSVQAEDLAVYYCQQYYTTPWTFGGGAKLEIQ
notes: human-mouse chimeric antibody
On to B2, for which the values for the IC50 in test [1] and in test [4] were 0.152 nM and 0.368 nM, respectively. The concentration giving a half-maximal response (EC50) was found to be 0.299 nM in [2]; 0.218 nM in [3]; 0.0181 nM in [5]; 0.0165 nM in [6]; 0.029 nM in test [8]; 0.29 nM in test [9]. Moreover, the Kd in test [7] stood at 0.0697 nM. In [7], this molecule gave an off-rate constant (koff) of 0.000315 s⁻¹. In addition, the kon in [7] was 4.53e+06 M⁻¹ s⁻¹.

B3: TIGIT-CHI-006 (antibody, V domains shown)
VH: EVQLQESGPGLAKPSQTPSLTCSVTGYSMTSDYWNWIRKFPGNKLEYMGYISYSGRTYYNPSLKSRISITRDTSKNQFYLQLNSVTTEDTATYYCARGDYSNYGGAMYDWGQGTSVTVSS
VL: DIVMTQSHKFMSTSVGDRVSITCRASQGVSTTIAWYQQKPGQSPKLLIYSASYRYTGVPDRFTGSGSGTDFTFTISGVQAEDLAVYYCQQYYSSPFTFGGGTKLEIK
notes: human-mouse chimeric antibody
Take B3: the half-inhibitory concentration (IC50) in test [1] was 0.246 nM; in [4], 0.572 nM. Moreover, the concentration for a half-maximal effect (EC50) in [2] was 0.502 nM; in [3] it was 0.329 nM; in test [5], 0.0167 nM; in test [6], 0.0389 nM; in test [8], 0.0731 nM; in test [9], 0.481 nM. Further, binding in [7] was characterised by a dissociation constant (Kd) of 0.132 nM. Moreover, the dissociation rate constant (koff) in [7] came to 0.00017 s⁻¹. For the same molecule, in [7], the on-rate constant (kon) worked out at 1.29e+06 M⁻¹ s⁻¹.

B4: TIGIT-CHI-070 (antibody, V domains shown)
VH: QVQLQQPGTELVKPGASVKLSCRASGYTFTNYYMHWVKQRPGRGLEWIGRIDPDSGGSKYNEKFKSKATLTVDKLSSTAYMQLSSLTSEDSAVYYCAREGHYGFYSDYWGQGTTLTVSS
VL: DIQMTQSPASLSASVGETVTITCRVSENIYSYLAWYQQKQGKSPQLLVYNAKTLAEGVPSRFSGSGSGTQFSLKINSLQPEDFGNYYCQHHYGNPLTFGAGTKLDLK
notes: human-mouse chimeric antibody
For B4, the half-maximal inhibitory concentration (IC50) came to 0.384 nM in test [1] and 0.582 nM in test [4]. Further, the EC50 in [2] came out at 0.517 nM; in test [3] it was 0.352 nM; in [5], 0.0145 nM; in test [6] it was 0.0163 nM; in test [8], 0.0359 nM; in [9] it was 0.394 nM. This molecule gave a Kd in test [7] of 0.3 nM. The dissociation rate constant (koff) in test [7] came to 0.000456 s⁻¹. The molecule also registered a kon in [7] of 1.52e+06 M⁻¹ s⁻¹.
